Assay results reported in patent US20250361268A1, “NOVEL ANTI-INFLAMMATORY PEPTIDE AND USE THEREOF” (NOVACELL TECHNOLOGY INC., priority 2022, published 2025).

T1: formyl peptide receptor 2 (FPR2) (UniProt P25090 1-351, limits assumed)
T1 sequence (looked up): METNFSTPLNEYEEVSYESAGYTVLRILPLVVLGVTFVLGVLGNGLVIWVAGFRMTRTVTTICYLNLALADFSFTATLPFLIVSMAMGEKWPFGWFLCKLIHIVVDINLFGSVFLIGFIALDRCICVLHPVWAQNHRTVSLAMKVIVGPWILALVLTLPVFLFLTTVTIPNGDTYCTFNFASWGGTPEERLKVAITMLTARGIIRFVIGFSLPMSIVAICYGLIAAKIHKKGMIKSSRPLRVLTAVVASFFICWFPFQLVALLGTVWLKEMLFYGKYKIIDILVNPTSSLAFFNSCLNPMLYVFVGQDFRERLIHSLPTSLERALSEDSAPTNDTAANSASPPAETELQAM

T2: FPR1 (UniProt P21462 1-350, limits assumed)
T2 sequence (looked up): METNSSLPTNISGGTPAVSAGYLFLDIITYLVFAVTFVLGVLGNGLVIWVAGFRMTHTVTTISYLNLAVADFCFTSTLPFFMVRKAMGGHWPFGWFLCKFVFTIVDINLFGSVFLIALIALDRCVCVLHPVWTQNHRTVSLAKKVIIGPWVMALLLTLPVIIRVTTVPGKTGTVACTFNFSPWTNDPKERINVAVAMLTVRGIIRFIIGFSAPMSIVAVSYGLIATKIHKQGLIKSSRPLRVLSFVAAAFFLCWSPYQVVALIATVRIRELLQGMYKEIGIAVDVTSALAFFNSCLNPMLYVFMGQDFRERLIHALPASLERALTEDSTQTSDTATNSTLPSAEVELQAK

B1: peptide of SEQ ID NO 149 (peptide)
peptide: HKYKPM
HELM: PEPTIDE1{[CCCCCCCC(=O)[*:2]].H.K.Y.K.P.[dM].[am]}$$$$V2.0
SMILES: CCCCCCCC(=O)N[C@@H](Cc1c[nH]cn1)C(=O)N[C@@H](CCCCN)C(=O)N[C@@H](Cc1ccc(O)cc1)C(=O)N[C@@H](CCCCN)C(=O)N1CCC[C@H]1C(=O)N[C@H](CCSC)C(N)=O
B2: peptide of SEQ ID NO 18 (peptide)
peptide: MKYKVM
HELM: PEPTIDE1{[ac].M.K.Y.K.V.[dM].[am]}$$$$V2.0
SMILES: CSCC[C@H](NC(C)=O)C(=O)N[C@@H](CCCCN)C(=O)N[C@@H](Cc1ccc(O)cc1)C(=O)N[C@@H](CCCCN)C(=O)N[C@H](C(=O)N[C@H](CCSC)C(N)=O)C(C)C
B3: peptide of SEQ ID NO 154 (peptide)
peptide: RWRYLYM
HELM: PEPTIDE1{R.W.R.Y.L.Y.[dM].[am]}$$$$V2.0; N-terminus assumed
SMILES: CSCC[C@@H](NC(=O)[C@H](Cc1ccc(O)cc1)NC(=O)[C@H](CC(C)C)NC(=O)[C@H](Cc1ccc(O)cc1)NC(=O)[C@H](CCCNC(=N)N)NC(=O)[C@H](Cc1c[nH]c2ccccc12)NC(=O)[C@@H](N)CCCNC(=N)N)C(N)=O
B4: peptide of SEQ ID NO 157 (peptide)
peptide: RWRYTYM
HELM: PEPTIDE1{R.W.R.Y.T.Y.[dM].[am]}$$$$V2.0; N-terminus assumed
SMILES: CSCC[C@@H](NC(=O)[C@H](Cc1ccc(O)cc1)NC(=O)[C@@H](NC(=O)[C@H](Cc1ccc(O)cc1)NC(=O)[C@H](CCCNC(=N)N)NC(=O)[C@H](Cc1c[nH]c2ccccc12)NC(=O)[C@@H](N)CCCNC(=N)N)[C@@H](C)O)C(N)=O
B5: peptide of SEQ ID NO 17 (peptide)
peptide: MKYKVM
HELM: PEPTIDE1{M.K.Y.K.V.[dM].[am]}$$$$V2.0; N-terminus assumed
SMILES: CSCC[C@H](N)C(=O)N[C@@H](CCCCN)C(=O)N[C@@H](Cc1ccc(O)cc1)C(=O)N[C@@H](CCCCN)C(=O)N[C@H](C(=O)N[C@H](CCSC)C(N)=O)C(C)C
B6: peptide of SEQ ID NO 148 (peptide)
peptide: HKYKPM
HELM: PEPTIDE1{[CCCC(=O)[*:2]].H.K.Y.K.P.[dM].[am]}$$$$V2.0
SMILES: CCCC(=O)N[C@@H](Cc1c[nH]cn1)C(=O)N[C@@H](CCCCN)C(=O)N[C@@H](Cc1ccc(O)cc1)C(=O)N[C@@H](CCCCN)C(=O)N1CCC[C@H]1C(=O)N[C@H](CCSC)C(N)=O
B7: peptide of SEQ ID NO 156 (peptide)
peptide: RWRYFYM
HELM: PEPTIDE1{R.W.R.Y.F.Y.[dM].[am]}$$$$V2.0; N-terminus assumed
SMILES: CSCC[C@@H](NC(=O)[C@H](Cc1ccc(O)cc1)NC(=O)[C@H](Cc1ccccc1)NC(=O)[C@H](Cc1ccc(O)cc1)NC(=O)[C@H](CCCNC(=N)N)NC(=O)[C@H](Cc1c[nH]c2ccccc12)NC(=O)[C@@H](N)CCCNC(=N)N)C(N)=O
B8: peptide of SEQ ID NO 147 (peptide)
peptide: HKYKPM
HELM: PEPTIDE1{[ac].H.K.Y.K.P.[dM].[am]}$$$$V2.0
SMILES: CSCC[C@@H](NC(=O)[C@@H]1CCCN1C(=O)[C@H](CCCCN)NC(=O)[C@H](Cc1ccc(O)cc1)NC(=O)[C@H](CCCCN)NC(=O)[C@H](Cc1c[nH]cn1)NC(C)=O)C(N)=O

Tests used:
[1] = target: T1, formyl peptide receptor 2 (FPR2); assay: cell-based or functional assay
FPR1 = target: T2, FPR1; assay: cell-based or functional assay

| Binder | EC50 for [Ca2+] [1] [µM] | EC50 for [Ca2+] (FPR1) [µM] |
| --- | --- | --- |
| B1 | < 0.01 | > 10 |
| B2 | < 0.01 | > 10 |
| B3 | < 0.01 | > 10 |
| B4 | < 0.01 | > 10 |
| B5 | < 0.01 | > 10 |
| B6 | < 0.01 | > 10 |
| B7 | < 0.01 | > 10 |
| B8 | < 0.01 | > 10 |
